# Test results reported in the RNAGym collection of RNA variant scans (doi:10.7554/elife.80360).
# B1: HDV Ribozyme (parent)
# chain: GGCCGGCAUGGUCCCAGCCUCCUCGCUGGCGCCGGCUGGGCAACAUUCCGAGGGGACCGUCCCCUCGGUAAUGGCGAAUGGGACCCA
# Variants of: B1
# Test: self-cleavage, relative activity (ratio to wild type); higher = more cleavage; co-transcriptional
row,Variant,self-cleavage
1,U23G C66U,0.65
2,C24A A45U,0.541
3,C24A A45G,0.898
4,U23C G55C,0.914
5,U23C G55U,1.08
6,U23G C36A,0.203
7,U23C G74C,0.277
8,U23C G74A,0.217
9,C24A C33A,0.0811
10,C24A C33G,0.142
11,C24A C33U,0.363
12,U23G A83G,0.237
13,U23G U69A,0.499
14,U23G U69G,0.431
15,U23G U37A,0.0678
16,U23C U46G,0.739
17,U23C U46A,0.538
18,U23C U46C,0.745
19,U23G C84G,0.388
20,U23G C84U,0.342
21,U23C G53C,0.927

row,Variant,self-cleavage
1,C24A C41U,0.354
2,C24A C41A,0.369
3,C24A C57A,0.842
4,U23G G67A,0.628
5,C24A A56G,0.404
6,U23G C85A,0.787
7,U23G G50A,0.614
8,U23G G50C,0.767
9,U23C G54A,0.888
10,U23C G54U,1.01
11,U23G A78C,0.106
12,C24A C49A,0.65
13,U23C G81U,0.499
14,U23C G52U,1.11
15,U23C G82U,0.312
16,U23C G82A,0.314
17,U23G G54C,0.598
18,U23G G55U,0.502
19,U23G G55A,0.67
20,U23G C30U,0.203
21,U23G C30G,0.0536

row,Variant,self-cleavage
1,U23G C30A,0.145
2,U23G C61U,0.923
3,U23G C61A,0.743
4,C24A A83G,0.626
5,U23C U65A,1.09
6,U23C U65C,1.02
7,U23C U65G,0.95
8,U23G G25A,0.142
9,U23G C57U,0.785
10,U23G C57A,0.656
11,U23G C57G,0.831
12,U23G G52A,0.554
13,C24A C36A,0.175
14,C24A A77G,0.256
15,C24A A77U,0.185
16,U23G G31A,0.175
17,U23G G31U,0.0639
18,U23C U79A,0.554
19,U23C U79C,0.232
20,C24A A87C,0.645
21,U23C G76C,1.05

row,Variant,self-cleavage
1,U23G C62A,0.712
2,U23G C62U,0.403
3,C24A C48G,0.47
4,C24A C48U,0.799
5,U23G A51C,0.63
6,U23G A51G,0.8
7,U23G A51U,0.705
8,U23C G59U,0.975
9,U23C G59C,1.26
10,U23G C41A,0.465
11,U23G A43G,0.138
12,U23G A43C,0.131
13,U23G U60G,0.665
14,U23G A56C,0.978
15,U23G A56G,0.787
16,U23G G34C,0.0415
17,C24A A43G,0.256
18,C24A A43U,0.258
19,U23G G40C,0.135
20,U23G G40A,0.76
21,U23G G39U,0.405
